# Data reported in patent US20220363718A1 (Bicycle, published 2022).
# *1 amine or outer side, *2 acyl side, *3 side chain or, on linkers, in order; H or OH if unused. Bridges are numbered along the chain shown (N, C = ends). Where no end group is shown, it is not given here. [ ]: non-standard residue; d: D form. Phe(4-OMe) = 4-methoxy-phenylalanine (4-MeOPhe) = O-methyl-tyrosine, COc1ccc(C[C@H](N[*:1])C(=O)[*:2])cc1; TATA = O=C(CC[*:1])N1CN(C(=O)CC[*:2])CN(C(=O)CC[*:3])C1; Abu(4,4,4-F3) = N[C@@H](CC(F)(F)F)C(=O)O; Orn = NCCC[C@H](N)C(=O)O
# Molecular target: T1, Biotinylated human TSLP (human, biotinylated)
# T1 construct: also called hTSLP; thymic stromal lymphopoietin
# T1 sequence (chain, as listed by the source limits assumed): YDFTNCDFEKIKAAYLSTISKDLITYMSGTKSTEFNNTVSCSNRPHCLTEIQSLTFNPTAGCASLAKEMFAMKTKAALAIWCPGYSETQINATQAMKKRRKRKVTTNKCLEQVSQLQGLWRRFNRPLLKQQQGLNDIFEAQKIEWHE
# Experiment: SPR, biotinylated hTSLP on streptavidin chip
row,Kd,Binder
1,330 nM,ACVDLDPWSCEDWWLCA (linker 2-10-16 via TATA) [Example 183]
2,380 nM,CQWLEDCWRGFCDTSTHS (linker 1-7-12 via TATA; not fully specified (C-terminus)) [Example 128]
3,290 nM,ACRDLDPWTCPTWWTCYDE (linker 2-10-16 via TATA; not fully specified (C-terminus)) [Example 168]
4,250 nM,CQWLQDCFRGXC (N-term acetyl; CQWLQDCFRG[4-FPhe]C as printed; 3 Cys on TATA) [Example 118]
5,1300 nM,CTELDXWTCETWWLC (CTELD[diF-P]WTCETWWLC as printed; 3 Cys on TATA) [Example 182]
6,72 nM,SHVCRDLDPWTCDSWWLCA (linker 4-12-18 via TATA) [Example 188]
7,520 nM,ACEWLEDCWKGFCHSE (linker 2-8-13 via TATA) [Example 136]
8,6100 nM,ACDWQWSYDCWLPCA (linker 2-10-14 via TATA) [Example 196]
9,200 nM,"Ac-CQW[Abu(4,4,4-F3)]EDCWRGFC (linker 1-7-12 via TATA; not fully specified (C-terminus)) [Example 111]"
10,170 nM,CQWLEDCWXGFC (not fully specified; CQWLEDCW[Cit]GFC as printed; 3 Cys on TATA) [Example 102]
11,400 nM,CQWLEDCWXGFC (N-term acetyl; CQWLEDCW[Can]GFC as printed; 3 Cys on TATA) [Example 131]
12,30 nM,AHPCADLDPWTCPNWWLCA (linker 4-12-18 via TATA; not fully specified (C-terminus)) [Example 165]
13,290 nM,ACDWDWEYDCWLHCA (linker 2-10-14 via TATA) [Example 198]
14,580 nM,ACRDLDPWTCSSWWLCKPDHVDA (linker 2-10-16 via TATA) [Example 177]
15,300 nM,C[Orn]ELDPWTCETWWLC (linker 1-9-15 via TATA) [Example 180]
16,230 nM,ACTELDPWTCETWWLCA (linker 2-10-16 via TATA; not fully specified (C-terminus)) [Example 163]
17,400 nM,CQWLEDCWRGXC (N-term acetyl; CQWLEDCWRG[3-CNPhe]C as printed; 3 Cys on TATA) [Example 130]
18,710 nM,Ac-CQWLEDCWRG[Phe(4-OMe)]C (linker 1-7-12 via TATA) [Example 142]
19,290 nM,ACTDLDPWTCNSWWLCAGD (linker 2-10-16 via TATA; not fully specified (C-terminus)) [Example 169]
20,50 nM,ACRDLDPWTCSSWWLCADGLYDA (linker 2-10-16 via TATA) [Example 193]
21,68 nM,DHDCTWNWEYDCWLDCA (linker 4-12-16 via TATA) [Example 200]

row,Kd,Binder
1,81 nM,ACDWHWEYDCWLSCA (linker 2-10-14 via TATA) [Example 199]
2,170 nM,ACKDLDPWTCSSWWECAPN (linker 2-10-16 via TATA; not fully specified (C-terminus)) [Example 167]
3,300 nM,ACNWLEDCWHGFCHEE (linker 2-8-13 via TATA; not fully specified (C-terminus)) [Example 125]
4,520 nM,ACFWLEDCWRGYCETA (linker 2-8-13 via TATA) [Example 138]
5,5600 nM,CHWLENCWXGFC (not fully specified; N-term acetyl; CHWLENCW[Dap]GFC as printed; 3 Cys on TATA) [Example 159]
6,8.6 nM,CQWLQDCWXGXC (N-term acetyl; CQWLQDCW[ADMA]G[4-FPhe]C as printed; 3 Cys on TATA) [Example 20]
7,80 nM,CQWLEDCWXGXC (N-term acetyl; CQWLEDCW[4-PipA]G[4-FPhe]C as printed; 3 Cys on TATA) [Example 70]
8,12 nM,CWWLQDCWXGXC (not fully specified; N-term acetyl; CWWLQDCW[ADMA]G[4-FPhe]C as printed; 3 Cys on TATA) [Example 28]
9,940 nM,CQWXEDCWRGFC (N-term acetyl; CQW[M(O)]EDCWRGFC as printed; 3 Cys on TATA) [Example 147]
10,9.2 nM,CQXLEDCXRGXC (not fully specified; N-term acetyl; CQ[5FTrp]LEDC[5FTrp]RG[4-FPhe]C as printed; 3 Cys on TATA) [Example 21]
11,750 nM,CQWLEDCWRGXC (N-term acetyl; CQWLEDCWRG[3-BrPhe]C as printed; 3 Cys on TATA) [Example 143]
12,170 nM,ACRDLDPWTCEEWWLCAHP (linker 2-10-16 via TATA) [Example 170]
13,460 nM,ACDWVWEYDCWLPCA (linker 2-10-14 via TATA) [Example 197]
14,15000 nM,CTELDXWTCETWWLC (CTELD[Chx-P]WTCETWWLC as printed; 3 Cys on TATA) [Example 195]
15,86 nM,RAPCPDLDPWTCSDWWLCA (linker 4-12-18 via TATA) [Example 187]
16,310 nM,RDLCTDLDPWTCPDWWLCA (linker 4-12-18 via TATA) [Example 189]
17,490 nM,CQWLEDCWRGXC (N-term acetyl; CQWLEDCWRG[2ThienylA]C as printed; 3 Cys on TATA) [Example 135]
18,900 nM,CQXLEDCWXGXC (N-term acetyl; CQ[ButG]LEDCW[ButG]G[4-FPhe]C as printed; 3 Cys on TATA) [Example 145]
19,3200 nM,CQWLEDCWXGFC (not fully specified; N-term acetyl; CQWLEDCW[Dap]GFC as printed; 3 Cys on TATA) [Example 155]
20,180 nM,CQWLXDCWRGXC (not fully specified; N-term acetyl; CQWL[3-ClPhe]DCWRG[4-FPhe]C as printed; 3 Cys on TATA) [Example 105]
21,860 nM,CWWLXDCWRGXC (N-term acetyl; CWWL[3-ClPhe]DCWRG[4-FPhe]C as printed; 3 Cys on TATA) [Example 144]

row,Kd,Binder
1,1100 nM,Ac-CQWLEDCWAGFC (linker 1-7-12 via TATA) [Example 149]
2,3300 nM,CQWLEDCWXGFC (not fully specified; CQWLEDCW[Dap]GFC as printed; 3 Cys on TATA) [Example 156]
3,290 nM,CTELDXWTCETWWLC (CTELD[5-Ph-P]WTCETWWLC as printed; 3 Cys on TATA) [Example 194]
4,360 nM,CKELDPWTCETWWLC (linker 1-9-15 via TATA) [Example 179]
5,310 nM,CQELDPWTCETWWLC (linker 1-9-15 via TATA) [Example 181]
6,81 nM,RVNTHQCRDLDPWTCSSWWLCA (linker 7-15-21 via TATA) [Example 190]
7,6.7 nM,CHWLEDCWRGXC (N-term acetyl; CHWLEDCWRG[4-FPhe]C as printed; 3 Cys on TATA) [Example 19]
8,30 nM,CQWLFDCWRGXC (not fully specified; N-term acetyl; CQWLFDCWRG[4-FPhe]C as printed; 3 Cys on TATA) [Example 43]
9,51 nM,CQWIEDCWRGXC (N-term acetyl; CQWIEDCWRG[4-FPhe]C as printed; 3 Cys on TATA) [Example 57]
10,310 nM,CAWLEDCWRGXC (not fully specified; N-term acetyl; C[dA]WLEDCWRG[4-FPhe]C as printed; 3 Cys on TATA) [Example 126]
11,21 nM,CQWLFDCWRGXC (N-term acetyl; CQWLFDCWRG[4-FPhe]C as printed; C-terminal -COOH; 3 Cys on TATA) [Example 39]
12,9.9 nM,CQWLENCWRGXC (not fully specified; N-term acetyl; CQWLENCWRG[4-FPhe]C as printed; 3 Cys on TATA) [Example 23]
13,240 nM,ACRDLDPWTCSSWWLCSESVHTA (linker 2-10-16 via TATA) [Example 175]
14,180 nM,CQWLEDCWXGFC (not fully specified; N-term acetyl; CQWLEDCW[Cit]GFC as printed; 3 Cys on TATA) [Example 104]
15,160 nM,Ac-CDWLEDCWRGFCTTS (linker 1-7-12 via TATA; not fully specified (C-terminus)) [Example 100]
16,250 nM,RENCRWLDDCWQGFCA (linker 4-10-15 via TATA) [Example 117]
17,300 nM,ACRDLDPWTCSSWWLCSSDTTDA (linker 2-10-16 via TATA) [Example 176]
18,890 nM,ACESLDPWSCPVWWRCA (linker 2-10-16 via TATA; not fully specified (C-terminus)) [Example 161]
19,160 nM,ACEWLEDCWRGFCA (linker 2-8-13 via TATA; not fully specified (C-terminus)) [Example 101]
20,600 nM,ACDWLDDCWKGFCA (linker 2-8-13 via TATA) [Example 141]
